Experimental data reported in PMC6554336, “C3-Glomerulopathy Autoantibodies Mediate Distinct Effects on Complement C3- and C5-Convertases” (Frontiers in Immunology, 2019).

Target: T1, C3b (UniProt P01024 23-667; P01024 749-1663)
T1 construct: Coated on the microtiter plate at 5 ug/ml; source: bought: CompTech
Assay: ELISA; C3-convertase assembled on coated C3b in the presence of patient IgGs for 45 min, then Factor H (20 ug/ml) added, 37°C; convertase-bound Bb detected at 15, 30 or 45 min with Factor B polyclonal antiserum, OD 450 nm
Conditions: both partners purified

T1 sequence (P01024 23-667, chain 1 of 2): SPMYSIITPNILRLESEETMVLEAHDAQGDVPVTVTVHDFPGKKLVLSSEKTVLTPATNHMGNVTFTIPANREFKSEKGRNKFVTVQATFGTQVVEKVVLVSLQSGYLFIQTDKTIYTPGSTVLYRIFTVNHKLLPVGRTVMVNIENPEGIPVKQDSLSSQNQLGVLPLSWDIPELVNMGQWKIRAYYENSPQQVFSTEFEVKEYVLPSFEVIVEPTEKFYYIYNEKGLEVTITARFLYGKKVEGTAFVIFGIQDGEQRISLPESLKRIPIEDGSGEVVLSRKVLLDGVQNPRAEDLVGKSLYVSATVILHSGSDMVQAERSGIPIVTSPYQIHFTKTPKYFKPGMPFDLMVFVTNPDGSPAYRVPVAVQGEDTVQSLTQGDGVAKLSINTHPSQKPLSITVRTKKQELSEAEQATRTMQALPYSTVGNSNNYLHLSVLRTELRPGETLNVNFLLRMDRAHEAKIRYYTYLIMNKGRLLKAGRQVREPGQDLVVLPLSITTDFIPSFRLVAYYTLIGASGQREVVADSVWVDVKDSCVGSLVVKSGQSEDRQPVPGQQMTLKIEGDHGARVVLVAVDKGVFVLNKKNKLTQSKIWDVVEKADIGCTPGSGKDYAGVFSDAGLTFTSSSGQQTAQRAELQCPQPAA
T1 sequence (P01024 749-1663, chain 2 of 2): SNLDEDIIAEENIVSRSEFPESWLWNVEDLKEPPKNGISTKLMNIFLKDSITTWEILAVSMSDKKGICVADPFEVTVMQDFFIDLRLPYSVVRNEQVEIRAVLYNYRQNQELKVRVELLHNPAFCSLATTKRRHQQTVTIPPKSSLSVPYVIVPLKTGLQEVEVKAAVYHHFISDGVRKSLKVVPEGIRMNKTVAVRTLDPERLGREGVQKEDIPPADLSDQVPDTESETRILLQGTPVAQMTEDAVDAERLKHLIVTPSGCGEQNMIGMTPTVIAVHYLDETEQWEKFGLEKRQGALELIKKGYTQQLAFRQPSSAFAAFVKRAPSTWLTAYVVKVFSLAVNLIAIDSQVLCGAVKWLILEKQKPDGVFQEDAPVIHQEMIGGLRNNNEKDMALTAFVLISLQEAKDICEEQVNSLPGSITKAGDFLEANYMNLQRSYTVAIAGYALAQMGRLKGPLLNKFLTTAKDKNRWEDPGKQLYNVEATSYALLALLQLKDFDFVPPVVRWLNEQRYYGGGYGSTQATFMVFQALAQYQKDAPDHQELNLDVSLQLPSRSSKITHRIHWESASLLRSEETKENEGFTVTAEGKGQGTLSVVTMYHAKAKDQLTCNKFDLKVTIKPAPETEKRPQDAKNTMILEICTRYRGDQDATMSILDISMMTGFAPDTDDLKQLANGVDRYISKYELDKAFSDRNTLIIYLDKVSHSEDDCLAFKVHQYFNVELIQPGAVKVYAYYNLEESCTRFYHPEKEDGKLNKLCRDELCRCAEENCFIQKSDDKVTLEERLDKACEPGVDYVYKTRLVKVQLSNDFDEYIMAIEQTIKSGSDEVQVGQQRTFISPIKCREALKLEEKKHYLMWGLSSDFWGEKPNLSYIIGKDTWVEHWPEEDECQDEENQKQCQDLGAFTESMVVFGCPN

binding result: binds
B1: Factor H (natural protein, UniProt P08603 19-1231, looked up)
chain: EDCNELPPRRNTEILTGSWSDQTYPEGTQAIYKCRPGYRSLGNVIMVCRKGEWVALNPLRKCQKRPCGHPGDTPFGTFTLTGGNVFEYGVKAVYTCNEGYQLLGEINYRECDTDGWTNDIPICEVVKCLPVTAPENGKIVSSAMEPDREYHFGQAVRFVCNSGYKIEGDEEMHCSDDGFWSKEKPKCVEISCKSPDVINGSPISQKIIYKENERFQYKCNMGYEYSERGDAVCTESGWRPLPSCEEKSCDNPYIPNGDYSPLRIKHRTGDEITYQCRNGFYPATRGNTAKCTSTGWIPAPRCTLKPCDYPDIKHGGLYHENMRRPYFPVAVGKYYSYYCDEHFETPSGSYWDHIHCTQDGWSPAVPCLRKCYFPYLENGYNQNYGRKFVQGKSIDVACHPGYALPKAQTTVTCMENGWSPTPRCIRVKTCSKSSIDIENGFISESQYTYALKEKAKYQCKLGYVTADGETSGSITCGKDGWSAQPTCIKSCDIPVFMNARTKNDFTWFKLNDTLDYECHDGYESNTGSTTGSIVCGYNGWSDLPICYERECELPKIDVHLVPDRKKDQYKVGEVLKFSCKPGFTIVGPNSVQCYHFGLSPDLPICKEQVQSCGPPPELLNGNVKEKTKEEYGHSEVVEYYCNPRFLMKGPNKIQCVDGEWTTLPVCIVEESTCGDIPELEHGWAQLSSPPYYYGDSVEFNCSESFTMIGHRSITCIHGVWTQLPQCVAIDKLKKCKSSNLIILEEHLKNKKEFDHNSNIRYRCRGKEGWIHTVCINGRWDPEVNCSMAQIQLCPPPPQIPNSHNMTTTLNYRDGEKVSVLCQENYLIQEGEEITCKDGRWQSIPLCVEKIPCSQPPQIEHGTINSSRSSQESYAHGTKLSYTCEGGFRISEENETTCYMGKWSSPPQCEGLPCKSPPEISHGVVAHMSDSYQYGEEVTYKCFEGFGIDGPAIAKCLGEKWSHPPSCIKTDCLSLPSFENAIPMGEKKDVYKAGEQVTYTCATYYKMDGASNVTCINSRWTGRPTCRDTSCVNPPTVQNAYIVSRQMSKYPSGERVRYQCRSPYEMFGDEEVMCLNGNWTEPPQCKDSTGKCGPPPPIDNGDITSFPLSVYAPASSVEYQCQNLYQLEGNKRITCRNGQWSEPPKCLHPCVISREIMENYNIALRWTAKQKLYSRTGESVEFVCKRGYRLSSRSHTLRTTCWDGKLEYPTCAKR
notes: complement Factor H; Used at 20 ug/ml; source: bought: CompTech
